Assay results: publication PMC4657047, “Structure of the Human Factor VIII C2 Domain in Complex with the 3E6 Inhibitory Antibody” (Scientific Reports, 2015)

Biological target: T1, human blood coagulation factor VIII C2 domain (human, UniProt P00451)
T1 construct: C2 domain of human blood coagulation factor VIII; pET15b with N-terminal His6 tag and a thrombin cleavage site; also called fVIII C2 domain
Experiment: crystal structure; C2 domain/3E6 FAB binary complex formed at 37 °C for 30 minutes with 1.5-fold molar excess of C2 domain, separated on Superdex 75; crystals from 10 mM MES (pH 6.4-6.8), 20% (w/v) PEG 8000; two complexes in the asymmetric unit; 2.61 Å
Details: both partners purified

T1 sequence (P00451 2190-2351): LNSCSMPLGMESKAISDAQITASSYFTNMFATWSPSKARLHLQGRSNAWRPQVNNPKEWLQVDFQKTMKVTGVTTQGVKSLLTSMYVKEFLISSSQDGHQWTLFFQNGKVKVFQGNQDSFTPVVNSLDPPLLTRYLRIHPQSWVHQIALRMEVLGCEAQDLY

- binding result: binds
B1: 3E6 antigen-binding fragment (FAB) of the classical anti-fVIII C2 domain inhibitory antibody 3E6 (Fab, V domains shown)
VH: QIQLVQSGPELKKPGKTVKISCKASDYTFTDYSLHWVKQAPGKGLKWMGWINTETGDPAYADDFKGRFAFSLETSVRTAYLQINNLKNEDTAIYFCAREDDGLASWGQGTTLTVSS
VL: QIVLTQSPAIMSASPGEKVTMTCSASSTVSYMYWYQQKPGSSPRFLISDTSNLASGVPVRFSGSGSGTSYSLTISRIEAEDAATYYCQHWSSYPLTFGGGTKLELK
notes: heavy chain of the 3E6 FAB is chain A (complex 1) and chain E (complex 2) of PDB 4XZU; light chain of the 3E6 FAB is chain B (complex 1) and chain F (complex 2) of PDB 4XZU; Fab made by papain cleavage of the murine monoclonal IgG; complex 1 (chains A, B) is the more complete model; also called 3E6 FAB; 3E6 antibody
